Experimental data as given in the DeepSol protein solubility set.

Test: soluble on expression in E. coli; label from the status in PepcDB or PDB records

Sequence | soluble on expression in E. coli
MTEALEQPLRRILSYWRNEIKPLLDAETGTLFKQAPIRVTLAFPNRYSVGMASLGYQVIYRMFNQEEGVACERAFLPDDVDAFERTGQALPTVESGRAAGDCELFSISVSFELDLTNIIRLIDVAGMNPLREERDETDPVVMIGGPLTSSNPYPLTPFADIIIIGDGEQIVPVVSEALRESSSREDFYDLIDGVPGVFLPARHVHEPTWATAPKELLPAYSQIVTPHSELSNMFLVEAQRGCPRPCTFCLARTMYGPNRNNQAQELLDVIPDWVEKVGLVGAALSDFPHTKFVGKTLTERGVKLGVSSIRADTVDAELAEILKAGGLRTFTVASDAPSERLRRWLKKGITTEDLLKTAQISRDLGFSGLKVYMMIGLGPENDDDITELISFTKELAGINRIALGISPFVPKRHTPHFADPFAGVQTIEKRLKRIQKELRTTAELRNVSAKWAWVESVIARGGPEVGMAAYQIYRNESIGAWKKALDEVGWQDDFEANTPSIGLPPGQYESKEVSAHAQGLAVLEHHHHHH | soluble
MTVWDRPEPPHRPVPLDRERIVAAAVALADEGGLTAVSVRKVAARLDAGPMRLYGFISTKDELFDLMVDAVYAEILPEERAGDWREALRVLAHRTRQAALRHPWLADLLGGRPALGPNGLAVAEATLAALDGLADVDTVMRAVETVSSYFTGAVRREIADLRAERATGLSKPEWQREHGPHLTRMLATGRYPALAKAVHDGTHVDAEESFATGLDWVLDAVAVRLARPPGS | not soluble
MGSDKIHHHHHHMKRPLKVLVVGAKFGELYLNSFLLEQPGLQLAGLLANGSPRARALANAFGIALYTDIEQLPDDLDIACVVVRSAVVGGAGGQLTESLLRRGLHVIQEHPVHPDELVRHQQLATRMGCQYIVNSFYPHTEAGRCWAGTAQRISRLLEGRKPNLAQLTTSRQLLYSGLDLLFQALGCDLARQVSVSLLDGDDDFHTLSLNLPDSRVLLRLQRWMAADDPDLHSLVMHQLNLAWPSGYLSLDATYGPVNWTPALHAEAHDDDRQTLYTSNADYLQHATAMPLHPAASHWRSAHEIEGPAGVGWLLQQLLAVLQGRPRADGLQADYQLAVARLWQDILRCAGPAEQRMASAPLFIDAAQLRAEG | not soluble
MQGDPDVLRLLNEQLTSELTAINQYFLHSKMQDNWGFTELAAHTRAESFDEMRHAEEITDRILLLDGLPNYQRIGSLRIGQTLREQFEADLAIEYDVLNRLKPGIVMCREKQDTTSAVLLEKIVADEEEHIDYLETQLELMDKLGEELYSAQCVSRPPT | not soluble
MSLRGRTSTLKVAILCFEKDRPKLEALKEILGRSYEVEFVDYSKDVWDDVLQYDCIVAYLASGIVVRGICGRLRGKWKDPAVIVLDKPLKHAVVMLGGHHGGNEVAKKLEEAGLKAVITTAMEFTEGYSVGVGFRKNATADEILEAIAMALEEVGGRMEEIRVISTVDAKRDSAIVEVANRLKRPLIFVRAEEINSMDIRETKAVKIGVKNVAEACAIYASNSGELILPKRVYGGVTVAIAWEGHHHHHH | soluble
MVEVVRNKRPPRGLVPRLRRALAALMEELGVGDKGVTVILTGDRRLRALKREWWGEAGKAYRKSVGPFGPGLPRPRAKCQPLIISTWRPHF | soluble
MSLNRKLLTADERQARDTERRSQLDVALMEGVQAILDSDSFKAVLAANAKFHSYSVNNAMLIWLQNPAAERVAGFHTWRKLGRSVKKGAKGIMIYAPRVATNVDAATGSEETHVYFGIEHVFDISQTEGDDIPTLDCPVLTEERGHDVYDRLVTYATRDGLTVSSDVAHELSEAMGYYSAVSKRIWVRPTAKAQMLKTLIHEIAHHLTEGKHTREAHETIAEGVAFQVCACLGIDSGERSFPYIAGWSASEGGTALIKQVLGHIQAITKQVMAIVEPADEANEGAEGHHHHHH | soluble
MNASLTPDQVSKKLKQFFSDHLPISQFMGLEIESYDGDTLILTAPLEPNINDKQTAFGGSLYNAAVMACWGMVYLKTQEENIACNQVVTEGNMKYIAPVYGRIRAICHAPDEEELANFFDHFERKGKARISLEAAIYNDACVMKIEPETKPSVKFNGQYAILKNQ | soluble
MTDNTRLRIAMQKSGRLSDDSRELLARCGIKINLHTQRLIAMAENMPIDILRVRDDDIPGLVMDGVVDLGIIGENVLEEELLNRRAQGEDPRYFTLRRLDFGGCRLSLATPVDEAWDGPLSLNGKRIATSYPHLLKRYLDQKGISFKSCLLNGSVEVAPRAGLADAICDLVSTGATLEANGLREVEVIYRSKACLIQRDGEMEESKQQLIDKLLTRIQGVIQARESKYIMMHAPTERLDEVIALLPGAERPTILPLAGDQQRVAMHMVSSETLFWETMEKLKALGASSILVLPIEKMME | soluble
RKPLQEPCTIFLIANGDLINPASRLLIPRKTLNQWDHVLQMVTEKITLRSGAVHRLYTLEGKLVESGAELENGQFYVAVGRDKFKKLPYGELLFD | soluble
MKKIIETQRAPGAIGPYVQGVDLGSMVFTSGQIPVCPQTGEIPADVQDQARLSLENVKAIVVAAGLSVGDIIKMTVFITDLNDFATINEVYKQFFDEHQATYPTRSCVQVARLPKDVKLEIEAIAVRSA | soluble
MNDGNSRTPYNSLYKPLNLIKSKPDGCCKHNGQCPYGKNQAESVDDGNSRTPYNSIYEPLSLNKSKPDSQCSNGKKPADDEYVNLLLPQSKEEQVAEKLADKLRKLEVKESKGKRRGSKERKKKKPEPVESTYESLASIEGSTNFSGPVTTESLESNVKCHHASQTAYIGVYSSADAEAQVKNRGEFALYHQFEVGNRLDHLTATLPLMLVYYTTTKKHRHYPVRKSGDNGTVQYSVDCGYPIVRKHFSINQLVLYYKTFGSIQMKQEDICSEEFSWWLE | not soluble
MPRARCKRCLRPTGYCLCALIPQIESRTRVLILQHPDEVSHALNTARLAALGLVNAQLCVGEVFDDLHTLLNPPGYQARLLFPGDAAETLTAYAPDATPMLLVVPDGTWRKARKLLHLNPLLAALPRVTLGSVPASRYRLRKAPGPEALSTLEAIVHTLQTLEAPNAFEALLKPFDALIDGQIQAMGNDTYQRNHGNQRLEHHHHHH | not soluble
MGSDKIHHHHHHMTDKLLKQHKRLLEQQHKLPYTINLSGEVFTIIIYTKLSKVAGVTVLNSQEEPATVKEAEAVVNRIQKYNFYFEYLGKRAHVIKERDSIIAEKIEQTQLILNDNTIFGEKMQPTIDELNLAMEVYKQQQRKMDVYQEDITLLNQKIKMQGEILEEDWESAENLSIAFAKAAYAQSIYLEATRKNRKQLAKWFHLHQKELPTDKQKALSKMVSVLSDTNAGLVFDQIISLRPLLEEGLMLDHEQSLTQRAAEFNKEFETHCRFYKPNINKVKNLIRQ | not soluble
MAHHHHHHMANDDPKEPQPAVLNPEVDQQDTSVNGDDGDAERDGGKDVPVFTPAGARVEVHPLVLLSLVDHYARVNAKVSQKRRVAGLLLGRHLSHPGGIQVLDINNSFAVPFDEDPQNPDVWFLDTNYAEEMFLMFRRVHPKVRIVGWYSAGPSCAVQPNDMLLHLLIADRFSLNPVYCIVNTDPNNKGVPVLAYTTVHGRDGARSLEFRNIPTHLGAEEAEEIGIEHLLRDLTDSTITTLSAQVQERELSLDHLGRVLQSIEEYLNDVAEGTMPISEDVLSVLQEVISLQPHIYHLKTSTDMVRHANDQAIAMFIAAIGRCVCTLYDVIANRRRIAREIQEVRARRERSLKEKLGNEQHKAKEAATEESRKEGAAKN | not soluble
MGSDKIHHHHHHMKKIIYFITLLFLVGCVDLSENMYNDLGKDNYYQTEQEYDAAFMNQYAFLRTMYAWNVFYLQEITTDEACLPQKGRDGYDGGIYQRMHWHTWTDQDVIINGAWQELFKAVGFCNQVLNDLNNSRSDILPENKKKLYIAESRALRAFFYSMLVDMFGNVPIVEKVSELNPPTKTRTEVFNYVEKEIAEVKDQLLRSTDTGSYGRFTQEAALALLSRLYLNAEVYTGTSRLDDCISVSQTLLQKGYQLESTWDAPFAWNNENSKENIWVIPNDEIVANEMSVLFYRNIHWSQRSQWDWKNPNGGWNGVCTVREFIETYDITHDRRCKYDPQNGMYGQFMWGPQFDLSGNPILGTNEYAGQQLDFTLDLPDMVNNKENAGARNIKYKVKVGAQGMENDFALFRIAEINFNLAEATLRKSNEVDSKALEGINKIRTRAGVSTYATGELTLDELYREKGREMCYETLRRTDMIRFGRFIQPMWDKNYTDKETINLFPIPLQATKLNPELKQNPGYTK | not soluble
MERVLITGGAGFIGSHLVDDLQQDYDVYVLDNYRTGKRENIKSLADDHVFELDIREYDAVEQIMKTYQFDYVIHLAALVSVAESVEKPILSQEINVVATLRLLEIIKKYNNHIKRFIFASSAAVYGDLPDLPKSDQSLILPLSPYAIDKYYGERTTLNYCSLYNIPTAVVKFFNVFGPRQDPKSQYSGVISKMFDSFEHNKPFTFFGDGLQTRDFVYVYDVVQSVRLIMEHKDAIGHGYNIGTGTFTNLLEVYRIIGELYGKSVEHEFKEARKGDIKHSYADISNLKALGFVPKYTVETGLKDYFNFEVDNIEEVTAKEVEMS | not soluble
MDIVISGGTGLIGRAITEIQGNTYNVITRGPSRTDGNINLVNWNDLRKIRHCDVVINLAGYNIGSKRWNPKIKEEIIRSRIESTRRMVEFISSLDSKPEAFLSGSAIGYYGYGENTVFDENSPPGTGFLAELANAWEDEALKASRYTRTVILRTSNVLSSSGGFLARIMNSRSRRVYYFGDGDQPVSWIHIKDYVNAVKFLMENKDISGPVNMAAPSPVSFADLAHAIAREKGYKEMKIPEFIGKLILGSEMYRELMSGQRVAPKKLTGSGFSFQYPDLESAIKNLLEHHHHHH | not soluble
TLNIVITGAKGFVGKNLKADLTSTTDHHIFEVHRQTKEEELESALLKADFVVHLAGVNRPEHDKEFSLGNVSYLDHVLDILTRNTKKPAILLSSSIQATQDNPYGESKLQGEQLLREYAEEYGNTVYIYRWPNLFGKWCKPNYNSVIATFCYKIARNEEIQVNDRNVELTLNYVDDIVAEIKRAIEGTPTIENGVPTVPNVFKVTLGEIVDLLYKFKQSRLDRTLPKLDNLFEKDLYSTYLSYLPSTDFSYPLLMNVDDRGSFTEFIKTPDRGQVSVNISKPGITKGNHWHHTKNEKFLVVSGKGVIRFRHVNDDEIIEYYVSGDKLEVVDIPVGYTHNIENLGDTDMVTIMWVNEMFDPNQPDTYFLEV | soluble
DIELTQTPVSLSASVGETVTITCRASENIYSYLAWYQQKQGKSPQFLVYNAKTLGEGVPSRFSGSGSGTQFSLKINSLLPEDFGSYYCQHHYGTPPLTFGGGTKLEIKREQKLISEEDLM | soluble
VAARTGNDPATDVRSTILTAAETCFERFGITKTTMEDVARAADMSRATVYRYFSDRESLIIESVARRARKNMKPARAFIAKWPTIEERLVEGICNNVESGLRDPMVHLLVSPSEMTLANSLLTTSGKAVELTSELWEPILRDAQEAGDIRADVDLALLCEWISELEIMCISQLNGGTGSLERFREKLRAFLVPSLLPAGN | not soluble
MGSDKIHHHHHHMSDDELLFAEEDPSDNVGEGIGRAPWVILVVDDDTEVHALSRLLLSEIEFKGRRVAMYSAYSAAEARAMLGRIDDVAVILLDVVMETDDAGLKLVRTIRETMNNRDVRIILRTGQPGQAPEREVIETYDINDYKSKTELTAQKLHTALVAALRAYDDIMALVLSRQGLRKILDAAASLYRQRSMELFAAGVLTQINALLGGDRDGILCVQSRKEQADEDDPAGAMVVLAASGAYERLVGKRVDELPESPVISLIREAAASRTSRHGSHASALYMPTGDGRETVVFLHAAEPLKAQDRALMQLFCDNISAGFDTVCEIDDLRRENVRLRARLGEAKAP | not soluble
